For this data set, the system named is ATP. Briefly: switch fluorescence ratio, 500 uM ATP over buffer (Cy3 cluster intensity, sum of 5 cycles each) (fold (ratio)); higher = stronger signal-on switching upon ATP binding; sequences stand for … in TCGTCGGCAGCGTCAGATGTGTATAAGAGACAGTTTTTTTTTTTTTTTTTTTTTTTTT…TC. The note with it: aptamer strand: ATP DNA aptamer (quencher-CACCTGGGGGAGTATTGCGGAGGAAGG + anchor), 100 nM annealed; ATP concentration: 500 uM. In outline: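 The fluorescence ratio divides summed target-cycle Cy3 intensity by summed buffer-cycle Cy3 intensity for each cluster and is averaged per switch-domain sequence. Cy3-labelled switching-strand clusters on a modified Illumina MiSeq flow-cell were annealed to 100 nM quencher-labelled ATP aptamer, then imaged in selection buffer and again after 15 min with 500 uM ATP at 22 °C. Five such cycles were run, with NaOH stripping and re-annealing between them, and clusters outside 100-1000 RFU were excluded.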

± gives the standard deviation of the averaged measurements.
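Further: ATP exposure 15 min at 22 °C before imaging.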

ATTACGCCA: the switch fluorescence ratio was found to be 1.17 ± 0.11.

Regarding ATTACGGCAT, the switch fluorescence ratio is 1.18 ± 0.047. The result for ATTACGGTCA reads 1.02 ± 0.038; that for ATTAGAAGAC, 1 ± 0.027; that for ATTAGAATTA, 0.982 ± 0.062. The value for ATTAGATGTT was 0.9635 ± 0.0029; that for ATTAGCAATG was 1.354 ± 0.006; that for ATTAGCGTCA was 0.991 ± 0.018. The value for ATTAGCTCGC was 0.97 ± 0.023. In the case of ATTAGCTTCC, the switch fluorescence ratio is 3 ± 0.33.

Take ATTAGGAGTC: the switch fluorescence ratio was found to be 0.999 ± 0.012. The value for ATTAGGGAAT was 0.976 ± 0.04; that for ATTAGGGTTA was 0.9928 ± 0.0088.

For ATTAGGGTTC, the switch fluorescence ratio was determined as 1.44 ± 0.47. On to ATTAGTAGAA, for which the switch fluorescence ratio was 0.995 ± 0.016. The result for ATTAGTAGGT reads 0.976 ± 0.012; that for ATTAGTAGTT, 0.996 ± 0.057.

For ATTAGTCTAT, the switch fluorescence ratio is 0.988 ± 0.036. The value for ATTAGTCTGC was 0.996 ± 0.033. The result for ATTAGTGCCG reads 1.04 ± 0.14; that for ATTATAAGGG, 1.02 ± 0.056; that for ATTATCAGGT, 1.06 ± 0.057.

ATTATGATGC: the switch fluorescence ratio was 0.992 ± 0.014. On to ATTATGATTG, for which the switch fluorescence ratio was 0.98 ± 0.028. The value for ATTATGCTGC was 0.977 ± 0.033; that for ATTATGCTTT was 1 ± 0.021. Consider ATTATGGCGA, for which the switch fluorescence ratio is 1.04 ± 0.023. The value for ATTATGGGTC was 1 ± 0.043. On to ATTATGGGTT, for which the switch fluorescence ratio came to 0.995 ± 0.029.

On to ATTATGTAGG, for which the switch fluorescence ratio was determined as 0.988 ± 0.015.

Consider ATTATGTCGT, for which the switch fluorescence ratio was determined as 1 ± 0.013. Consider ATTATGTGTC, for which the switch fluorescence ratio came out at 0.959 ± 0.048.

On to ATTATTAGTC, for which the switch fluorescence ratio turned out to be 1.01 ± 0.022. The value for ATTATTGCGT was 1.03 ± 0.04; that for ATTATTTCCC was 1.05 ± 0.082. The value for ATTATTTGAC was 1.08 ± 0.067; that for ATTATTTGGT was 1.01 ± 0.014.

As for ATTATTTTTT, the switch fluorescence ratio came out at 1.02 ± 0.046. The result for ATTCAAGTCA reads 1.03 ± 0.025; that for ATTCACAGTT, 1.03 ± 0.033; that for ATTCACCCGC, 1.48 ± 0.13. The value for ATTCAGAAGA was 1.07 ± 0.12. The value for ATTCAGCCGC was 1.62 ± 0.083; that for ATTCAGGTTT was 0.992 ± 0.026; that for ATTCATAGGC was 1 ± 0.052. In the case of ATTCATGATA, the switch fluorescence ratio is 0.975 ± 0.013. The value for ATTCATGTTG was 0.996 ± 0.014.

Regarding ATTCCGTATT, the switch fluorescence ratio is 1.44 ± 0.68.

As for ATTCCTCGAC, the switch fluorescence ratio was 1.67 ± 0.11. The value for ATTCCTTTTT was 0.9996 ± 0.0094. As to ATTCGAATCG, the switch fluorescence ratio was 1.05 ± 0.12. The value for ATTCGAATGT was 0.9994 ± 0.0013. The result for ATTCGAGCTG reads 1.002 ± 0.0034; that for ATTCGAGGTT, 0.987 ± 0.071. The result for ATTCGCATGT reads 1.15 ± 0.04. For the sequence ATTCGCTGCT, the switch fluorescence ratio is 1 ± 0.02. Turning to ATTCGGAGGG, the switch fluorescence ratio is 0.984 ± 0.011. The value for ATTCGGGATA was 1 ± 0.02; that for ATTCGGGATG was 0.979 ± 0.017. The result for ATTCGGGCCA reads 1.01 ± 0.037. The result for ATTCGGTAGT reads 1 ± 0.013; that for ATTCGGTTAT, 1.01 ± 0.045; that for ATTCGTATAT, 0.969 ± 0.051. Turning to ATTCGTCAAT, the switch fluorescence ratio amounted to 1.18 ± 0.13. The result for ATTCGTCTAG reads 0.989 ± 0.012. The value for ATTCGTGTTT was 0.978 ± 0.017. The result for ATTCGTTTGC reads 1 ± 0.057; that for ATTCTCAGTG, 1.01 ± 0.038; that for ATTCTCCATT, 1.0229 ± 0.00088.

ATTCTGACCG: the switch fluorescence ratio came to 1.09 ± 0.068. As to ATTCTGAGGC, the switch fluorescence ratio is 1.03 ± 0.045. For ATTCTTCGC, the switch fluorescence ratio is 1.06 ± 0.011.

With ATTCTTTCTT, the switch fluorescence ratio came to 1.002 ± 0.0018.

In the case of ATTGAAGCTT, the switch fluorescence ratio worked out at 1.009 ± 0.0089. The result for ATTGAAGGGA reads 1.018 ± 0.0059; that for ATTGAAGGGG, 0.975 ± 0.016; that for ATTGAATGGT, 1.006 ± 0.0027. The result for ATTGACATAT reads 1.054 ± 0.0046; that for ATTGACGTGT, 1 ± 0.035. The value for ATTGACTGAT was 1.03 ± 0.044; that for ATTGAGAGAT was 1.03 ± 0.014.

On to ATTGAGCTGT, for which the switch fluorescence ratio was found to be 0.9812 ± 0.0062. The value for ATTGAGGCAA was 1.22 ± 0.066; that for ATTGAGGGGG was 1.04 ± 0.052; that for ATTGAGGGTT was 0.985 ± 0.019. The result for ATTGAGTAA reads 0.976 ± 0.025; that for ATTGAGTAGC, 1.01 ± 0.032. The value for ATTGAGTTTA was 0.99883 ± 7e-05; that for ATTGATATTT was 0.998 ± 0.019. Regarding ATTGATCTCG, the switch fluorescence ratio amounted to 1.04 ± 0.083. The result for ATTGATGGGC reads 0.9644 ± 0.0037; that for ATTGATGTTC, 0.99 ± 0.053. The result for ATTGATTAGT reads 1.12 ± 0.18; that for ATTGATTGAC, 1.05 ± 0.043; that for ATTGATTGAG, 0.986 ± 0.022.

Take ATTGATTTAA: the switch fluorescence ratio is 0.9989 ± 0.0086. The value for ATTGCAAATC was 1.027 ± 0.0094.

On to ATTGCAGTTT, for which the switch fluorescence ratio was 0.986 ± 0.022. The value for ATTGCCACGG was 1.033 ± 0.0089; that for ATTGCCGCTC was 1.04 ± 0.036. The result for ATTGCGATTC reads 1.159 ± 0.01; that for ATTGCGGTCA, 1.01 ± 0.048. The result for ATTGCTCGA reads 0.993 ± 0.02; that for ATTGCTGGCG, 0.939 ± 0.039; that for ATTGGAAGGC, 0.967 ± 0.017. Regarding ATTGGACGTT, the switch fluorescence ratio amounted to 0.988 ± 0.016. Regarding ATTGGAGCAG, the switch fluorescence ratio was found to be 1.055 ± 0.0098. The value for ATTGGATCGA was 1.01 ± 0.054; that for ATTGGATCGG was 0.9956 ± 0.0095. The value for ATTGGCAAAA was 1.01 ± 0.035.

With ATTGGCATGC, the switch fluorescence ratio was 0.996 ± 0.027. The result for ATTGGGCGAG reads 0.993 ± 0.013.

For ATTGGGGGGA, the switch fluorescence ratio stood at 0.982 ± 0.018.

As to ATTGGGGGGG, the switch fluorescence ratio stood at 1.02 ± 0.044. The result for ATTGGGGTG reads 1.03 ± 0.11; that for ATTGGGGTTC, 1.01 ± 0.067; that for ATTGGGGTTG, 1 ± 0.017. The value for ATTGGGTATT was 0.9749 ± 0.007; that for ATTGGGTCTA was 0.978 ± 0.021. As for ATTGGGTGTC, the switch fluorescence ratio turned out to be 0.985 ± 0.039.
